Molecular target: RAC2^P29L peptide … presented by HLA-A2 (peptide-loaded T2 cells) (human)
Experiment: cell-based or functional assay

IFNγ production by TCR-transduced T cells (relative)	Binder
100%	RAC2-T001 TCR (TCR) TCR alpha: GENVEQHPSTLSVQEGDSAVIKCTYSDSASNYFPWYKQELGKGPQLIIDIRSNVGEKKDQRIAVTLNKTAKHFSLHITETQPEDSAVYFCAASMGNAGNMLTFGGGTRLMVKPH TCR beta: EPEVTQTPSHQVTQMGQEVILRCVPISNHLYFYWYRQILGQKVEFLVSFYNNEISEKSEIFDDQFSVERPDGSNFTLKIRSTKLEDSAMYFCASSETSGASYEQYFGPGTRLTVT
100%	RAC2-T002 TCR (TCR) TCR alpha: AQSVTQLGSHVSVSEGALVLLRCNYSSSVPPYLFWYVQYPNQGLQLLLKYTTGATLVKGINGFEAEFKKSETSFHLTKPSAHMSDAAEYFCAVGANNLFFGTGTRLTVIPY TCR beta: EPEVTQTPSHQVTQMGQEVILRCVPISNHLYFYWYRQILGQKVEFLVSFYNNEISEKSEIFDDQFSVERPDGSNFTLKIRSTKLEDSAMYFCASSEWRGSSYNEQFFGPGTRLTVL

— patent publication US20240189352A1
